This note sets out measurements from patent US20210388087A1 (Chugai, published 2021).

First the molecules themselves.
B1: GLS3000 N30H (antibody, name in Kabat numbering, V domains shown)
VH: QVQLVESGGGVVQPGRSLRLSCAASGFTFSNAWMHWVRQAPGKGLEWVAQIKAKSNNYATYYAESVKGRFTISRDDSKNSLYLQMNSLKTEDTAVYYCRYVHYGAYYGVDAWGQGTTVTVSS
VL: DIVMTQSPLSLPVTPGEPASISCRSSQSLVHSNRHTYLHWYQQKPGQAPRLLIYKVSNRFSGVPDRFSGSGSGTDFTLKISRVEAEDVGVYYCGQGTQVPYTFGQGTKLEIK
notes: one-arm IgG as m2
B2: GLS3000 N53D (antibody, name in Kabat numbering, V domains shown)
VH: QVQLVESGGGVVQPGRSLRLSCAASGFTFSNAWMHWVRQAPGKGLEWVAQIKAKSNNYATYYAESVKGRFTISRDDSKNSLYLQMNSLKTEDTAVYYCRYVHYGAYYGVDAWGQGTTVTVSS
VL: DIVMTQSPLSLPVTPGEPASISCRSSQSLVHSNRNTYLHWYQQKPGQAPRLLIYKVSDRFSGVPDRFSGSGSGTDFTLKISRVEAEDVGVYYCGQGTQVPYTFGQGTKLEIK
notes: one-arm IgG as m2
B3: GLS3000 N53E (antibody, name in Kabat numbering, V domains shown)
VH: QVQLVESGGGVVQPGRSLRLSCAASGFTFSNAWMHWVRQAPGKGLEWVAQIKAKSNNYATYYAESVKGRFTISRDDSKNSLYLQMNSLKTEDTAVYYCRYVHYGAYYGVDAWGQGTTVTVSS
VL: DIVMTQSPLSLPVTPGEPASISCRSSQSLVHSNRNTYLHWYQQKPGQAPRLLIYKVSERFSGVPDRFSGSGSGTDFTLKISRVEAEDVGVYYCGQGTQVPYTFGQGTKLEIK
notes: one-arm IgG as m2
B4: GLS3000 N30K (antibody, name in Kabat numbering, V domains shown)
VH: QVQLVESGGGVVQPGRSLRLSCAASGFTFSNAWMHWVRQAPGKGLEWVAQIKAKSNNYATYYAESVKGRFTISRDDSKNSLYLQMNSLKTEDTAVYYCRYVHYGAYYGVDAWGQGTTVTVSS
VL: DIVMTQSPLSLPVTPGEPASISCRSSQSLVHSNRKTYLHWYQQKPGQAPRLLIYKVSNRFSGVPDRFSGSGSGTDFTLKISRVEAEDVGVYYCGQGTQVPYTFGQGTKLEIK
notes: one-arm IgG as m2
B5: GLS3000 N53G (antibody, name in Kabat numbering, V domains shown)
VH: QVQLVESGGGVVQPGRSLRLSCAASGFTFSNAWMHWVRQAPGKGLEWVAQIKAKSNNYATYYAESVKGRFTISRDDSKNSLYLQMNSLKTEDTAVYYCRYVHYGAYYGVDAWGQGTTVTVSS
VL: DIVMTQSPLSLPVTPGEPASISCRSSQSLVHSNRNTYLHWYQQKPGQAPRLLIYKVSGRFSGVPDRFSGSGSGTDFTLKISRVEAEDVGVYYCGQGTQVPYTFGQGTKLEIK
notes: one-arm IgG as m2
B6: GLS3000 N30Q (antibody, name in Kabat numbering, V domains shown)
VH: QVQLVESGGGVVQPGRSLRLSCAASGFTFSNAWMHWVRQAPGKGLEWVAQIKAKSNNYATYYAESVKGRFTISRDDSKNSLYLQMNSLKTEDTAVYYCRYVHYGAYYGVDAWGQGTTVTVSS
VL: DIVMTQSPLSLPVTPGEPASISCRSSQSLVHSNRQTYLHWYQQKPGQAPRLLIYKVSNRFSGVPDRFSGSGSGTDFTLKISRVEAEDVGVYYCGQGTQVPYTFGQGTKLEIK
notes: one-arm IgG as m2
B7: GLS3000 N30Y (antibody, name in Kabat numbering, V domains shown)
VH: QVQLVESGGGVVQPGRSLRLSCAASGFTFSNAWMHWVRQAPGKGLEWVAQIKAKSNNYATYYAESVKGRFTISRDDSKNSLYLQMNSLKTEDTAVYYCRYVHYGAYYGVDAWGQGTTVTVSS
VL: DIVMTQSPLSLPVTPGEPASISCRSSQSLVHSNRYTYLHWYQQKPGQAPRLLIYKVSNRFSGVPDRFSGSGSGTDFTLKISRVEAEDVGVYYCGQGTQVPYTFGQGTKLEIK
notes: one-arm IgG as m2
B8: GLS3000 N30W (antibody, name in Kabat numbering, V domains shown)
VH: QVQLVESGGGVVQPGRSLRLSCAASGFTFSNAWMHWVRQAPGKGLEWVAQIKAKSNNYATYYAESVKGRFTISRDDSKNSLYLQMNSLKTEDTAVYYCRYVHYGAYYGVDAWGQGTTVTVSS
VL: DIVMTQSPLSLPVTPGEPASISCRSSQSLVHSNRWTYLHWYQQKPGQAPRLLIYKVSNRFSGVPDRFSGSGSGTDFTLKISRVEAEDVGVYYCGQGTQVPYTFGQGTKLEIK
notes: one-arm IgG as m2
B9: GLS3000 N53A (antibody, name in Kabat numbering, V domains shown)
VH: QVQLVESGGGVVQPGRSLRLSCAASGFTFSNAWMHWVRQAPGKGLEWVAQIKAKSNNYATYYAESVKGRFTISRDDSKNSLYLQMNSLKTEDTAVYYCRYVHYGAYYGVDAWGQGTTVTVSS
VL: DIVMTQSPLSLPVTPGEPASISCRSSQSLVHSNRNTYLHWYQQKPGQAPRLLIYKVSARFSGVPDRFSGSGSGTDFTLKISRVEAEDVGVYYCGQGTQVPYTFGQGTKLEIK
notes: one-arm IgG as m2
B10: GLS3000 N30I (antibody, name in Kabat numbering, V domains shown)
VH: QVQLVESGGGVVQPGRSLRLSCAASGFTFSNAWMHWVRQAPGKGLEWVAQIKAKSNNYATYYAESVKGRFTISRDDSKNSLYLQMNSLKTEDTAVYYCRYVHYGAYYGVDAWGQGTTVTVSS
VL: DIVMTQSPLSLPVTPGEPASISCRSSQSLVHSNRITYLHWYQQKPGQAPRLLIYKVSNRFSGVPDRFSGSGSGTDFTLKISRVEAEDVGVYYCGQGTQVPYTFGQGTKLEIK
notes: one-arm IgG as m2
B11: GLS3000 N30M (antibody, name in Kabat numbering, V domains shown)
VH: QVQLVESGGGVVQPGRSLRLSCAASGFTFSNAWMHWVRQAPGKGLEWVAQIKAKSNNYATYYAESVKGRFTISRDDSKNSLYLQMNSLKTEDTAVYYCRYVHYGAYYGVDAWGQGTTVTVSS
VL: DIVMTQSPLSLPVTPGEPASISCRSSQSLVHSNRMTYLHWYQQKPGQAPRLLIYKVSNRFSGVPDRFSGSGSGTDFTLKISRVEAEDVGVYYCGQGTQVPYTFGQGTKLEIK
notes: one-arm IgG as m2
B12: GLS3000 N53F (antibody, name in Kabat numbering, V domains shown)
VH: QVQLVESGGGVVQPGRSLRLSCAASGFTFSNAWMHWVRQAPGKGLEWVAQIKAKSNNYATYYAESVKGRFTISRDDSKNSLYLQMNSLKTEDTAVYYCRYVHYGAYYGVDAWGQGTTVTVSS
VL: DIVMTQSPLSLPVTPGEPASISCRSSQSLVHSNRNTYLHWYQQKPGQAPRLLIYKVSFRFSGVPDRFSGSGSGTDFTLKISRVEAEDVGVYYCGQGTQVPYTFGQGTKLEIK
notes: one-arm IgG as m2
B13: GLS3000 N53I (antibody, name in Kabat numbering, V domains shown)
VH: QVQLVESGGGVVQPGRSLRLSCAASGFTFSNAWMHWVRQAPGKGLEWVAQIKAKSNNYATYYAESVKGRFTISRDDSKNSLYLQMNSLKTEDTAVYYCRYVHYGAYYGVDAWGQGTTVTVSS
VL: DIVMTQSPLSLPVTPGEPASISCRSSQSLVHSNRNTYLHWYQQKPGQAPRLLIYKVSIRFSGVPDRFSGSGSGTDFTLKISRVEAEDVGVYYCGQGTQVPYTFGQGTKLEIK
notes: one-arm IgG as m2
B14: GLS3000 N30V (antibody, name in Kabat numbering, V domains shown)
VH: QVQLVESGGGVVQPGRSLRLSCAASGFTFSNAWMHWVRQAPGKGLEWVAQIKAKSNNYATYYAESVKGRFTISRDDSKNSLYLQMNSLKTEDTAVYYCRYVHYGAYYGVDAWGQGTTVTVSS
VL: DIVMTQSPLSLPVTPGEPASISCRSSQSLVHSNRVTYLHWYQQKPGQAPRLLIYKVSNRFSGVPDRFSGSGSGTDFTLKISRVEAEDVGVYYCGQGTQVPYTFGQGTKLEIK
notes: one-arm IgG as m2
B15: GLS3000 N30L (antibody, name in Kabat numbering, V domains shown)
VH: QVQLVESGGGVVQPGRSLRLSCAASGFTFSNAWMHWVRQAPGKGLEWVAQIKAKSNNYATYYAESVKGRFTISRDDSKNSLYLQMNSLKTEDTAVYYCRYVHYGAYYGVDAWGQGTTVTVSS
VL: DIVMTQSPLSLPVTPGEPASISCRSSQSLVHSNRLTYLHWYQQKPGQAPRLLIYKVSNRFSGVPDRFSGSGSGTDFTLKISRVEAEDVGVYYCGQGTQVPYTFGQGTKLEIK
notes: one-arm IgG as m2
B16: GLS3000 N30S (antibody, name in Kabat numbering, V domains shown)
VH: QVQLVESGGGVVQPGRSLRLSCAASGFTFSNAWMHWVRQAPGKGLEWVAQIKAKSNNYATYYAESVKGRFTISRDDSKNSLYLQMNSLKTEDTAVYYCRYVHYGAYYGVDAWGQGTTVTVSS
VL: DIVMTQSPLSLPVTPGEPASISCRSSQSLVHSNRSTYLHWYQQKPGQAPRLLIYKVSNRFSGVPDRFSGSGSGTDFTLKISRVEAEDVGVYYCGQGTQVPYTFGQGTKLEIK
notes: one-arm IgG as m2
B17: GLS3000 N30T (antibody, name in Kabat numbering, V domains shown)
VH: QVQLVESGGGVVQPGRSLRLSCAASGFTFSNAWMHWVRQAPGKGLEWVAQIKAKSNNYATYYAESVKGRFTISRDDSKNSLYLQMNSLKTEDTAVYYCRYVHYGAYYGVDAWGQGTTVTVSS
VL: DIVMTQSPLSLPVTPGEPASISCRSSQSLVHSNRTTYLHWYQQKPGQAPRLLIYKVSNRFSGVPDRFSGSGSGTDFTLKISRVEAEDVGVYYCGQGTQVPYTFGQGTKLEIK
notes: one-arm IgG as m2
B18: GLS3000 N30R (antibody, name in Kabat numbering, V domains shown)
VH: QVQLVESGGGVVQPGRSLRLSCAASGFTFSNAWMHWVRQAPGKGLEWVAQIKAKSNNYATYYAESVKGRFTISRDDSKNSLYLQMNSLKTEDTAVYYCRYVHYGAYYGVDAWGQGTTVTVSS
VL: DIVMTQSPLSLPVTPGEPASISCRSSQSLVHSNRRTYLHWYQQKPGQAPRLLIYKVSNRFSGVPDRFSGSGSGTDFTLKISRVEAEDVGVYYCGQGTQVPYTFGQGTKLEIK
notes: one-arm IgG as m2
B19: GLS3000 N53H (antibody, name in Kabat numbering, V domains shown)
VH: QVQLVESGGGVVQPGRSLRLSCAASGFTFSNAWMHWVRQAPGKGLEWVAQIKAKSNNYATYYAESVKGRFTISRDDSKNSLYLQMNSLKTEDTAVYYCRYVHYGAYYGVDAWGQGTTVTVSS
VL: DIVMTQSPLSLPVTPGEPASISCRSSQSLVHSNRNTYLHWYQQKPGQAPRLLIYKVSHRFSGVPDRFSGSGSGTDFTLKISRVEAEDVGVYYCGQGTQVPYTFGQGTKLEIK
notes: one-arm IgG as m2
B20: GLS3000 N30P (antibody, name in Kabat numbering, V domains shown)
VH: QVQLVESGGGVVQPGRSLRLSCAASGFTFSNAWMHWVRQAPGKGLEWVAQIKAKSNNYATYYAESVKGRFTISRDDSKNSLYLQMNSLKTEDTAVYYCRYVHYGAYYGVDAWGQGTTVTVSS
VL: DIVMTQSPLSLPVTPGEPASISCRSSQSLVHSNRPTYLHWYQQKPGQAPRLLIYKVSNRFSGVPDRFSGSGSGTDFTLKISRVEAEDVGVYYCGQGTQVPYTFGQGTKLEIK
notes: one-arm IgG as m2

In this assay the target is T1, CD3 epsilon homodimer protein (UniProt P07766 23-126).
T1 construct: also called CD3 (CD3 epsilon)
T1 sequence (P07766 23-126): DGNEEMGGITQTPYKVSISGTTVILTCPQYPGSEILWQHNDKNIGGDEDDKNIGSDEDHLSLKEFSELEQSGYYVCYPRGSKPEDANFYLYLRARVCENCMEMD
The assay is described as follows: SPR Biacore T200, CD3e homodimer on chip, vs unaltered GLS3000 antibody. For orientation: SPR reads the build-up and loss of mass on a sensor chip optically.
On to B1, for which the “ratio of amounts bound (Z=Y/X)” value is 0.98.
As to B2, the “ratio of amounts bound (Z=Y/X)” value was 0.34.
For the molecule B3, the “ratio of amounts bound (Z=Y/X)” value is 0.54.
As for B4, the “ratio of amounts bound (Z=Y/X)” value was determined as 1.65.
As to B5, the “ratio of amounts bound (Z=Y/X)” value stood at 0.76.
Consider B6, for which the “ratio of amounts bound (Z=Y/X)” value stood at 0.87.
The value for B7 was 1.04.
In the case of B8, the “ratio of amounts bound (Z=Y/X)” value worked out at 0.99.
In the case of B9 it was 0.61; in that of B10, 0.61; in that of B11, 0.8.
B12: the “ratio of amounts bound (Z=Y/X)” value turned out to be 0.69.
In the case of B13, the “ratio of amounts bound (Z=Y/X)” value was found to be 0.5.
The value for B14 was 0.61.
Take B15: the “ratio of amounts bound (Z=Y/X)” value amounted to 0.7.
The value for B16 was 0.29; that for B17 was 0.29.
Regarding B18, the “ratio of amounts bound (Z=Y/X)” value stood at 1.86.
On to B19, for which the “ratio of amounts bound (Z=Y/X)” value is 1.18.
Turning to B20, the “ratio of amounts bound (Z=Y/X)” value came out at 0.31.
